Here are results for three molecules from patent publication US20180273584A1 (REGENTS OF THE UNIVERSITY OF MICHIGAN, published 2018).

For assay [1], the target named is T1, HER2 over expressed in mouse colonic neoplasia (CPC;Apc mice) (mouse, UniProt P70424 23-1256).
T1 construct: whole, on cells; also called mouse HER2
In words: in vivo NIR fluorescence endoscopy, topical peptide, n=15 adenomas in mice, target-to-background ratio. As to the method:
Mouse imaging studies were performed with approval of the University of Michigan Committee on the Use and Care of Animals (UCUCA). The mice were housed in pathogen-free conditions and supplied water ad libitum under controlled conditions of humidity (50±10%), light (12/12 hour light/dark cycle) and temperature (25° C.). Anesthesia was induced and maintained via a nose cone with inhaled isoflurane mixed with oxygen at a concentration of 2-4% at a flow rate of ˜0.5 L/min. The colon was first rinsed with tap water to remove mucous and debris. White light illumination was used first to identify anatomic landmarks, including polyps, mucosal folds, colonic segment, and distance of endoscope tip from anus, to register the in vivo images with histology. […] During imaging, we recorded the 1) distance between the endoscope tip and the anus and 2) clockwise location of each region of high intensity. […]
We evaluated specific binding of KSP*-Cy5.5 to colonic adenomas that over express HER2 in CPC; Apc mice This mouse was genetically engineered to somatically delete an Apc allele under Cre regulation, and develops polypoid and flat adenomas spontaneously in the colon. […] Imaging was performed in vivo using a small animal endoscope that is sensitive to NIR fluorescence. […]

In assay [2] the target is T1, HER2 over expressed in mouse colonic …. In words: fluorescence imaging of mouse colon after intravenous KSP*-Cy5.5, n=4 mice.
Assay [3] has as its target T2, Human epidermal growth factor receptor 2 (HER2) (human, UniProt P04626 23-1255).
T2 construct: whole, on cells; also called ErbB2
Description: flow cytometry on HT29 cells, apparent dissociation constant, 0-200 nM peptide, 4 °C 1 h. As to the method: We measured the apparent dissociation constant of the HER2 peptide reagent to HT29 cells as an assessment of binding affinity. KSP*-Cy5.5 was serially diluted in PBS at concentrations of 0, 5, 10, 25, 50, 100, and 200 nM. ˜105 HT29 cells were incubated with KSP*-Cy5.5 at 4° C. for 1 hour and washed with cold PBS. The mean fluorescence intensities were measured with flow cytometry (BD® LSRII, BD Biosciences). The equilibrium dissociation constant kd=1/ka was calculated by performing a least squares fit of the data to the non-linear equation I, (I0+Imaxka[X])/([…]). I0 and Imax are the initial and maximum fluorescence intensities, corresponding to no peptide reagent and at saturation, respectively, and [X] represents the concentration of the bound peptide reagent. Graphpad prism analysis software (Graphpad Software Inc, La Jolla, Calif.) was used to calculate kd and ka.
We evaluated the binding parameters of KSP*-Cy5.5 to HT29 cells using flow cytometry.
A general note: Flow cytometry measures light scatter and fluorescence of single cells or particles in a stream.

In assay [4] the target is T2, Human epidermal growth factor receptor …. Description: confocal microscopy, 10 µM FITC-labeled peptide on Flo1-HER2 cells against Q-hTERT control cells. The procedure:
Flo-1-Her2 and Q-hTERT cells were seeded with ˜7,500 cells in 12-well plates with 1.5 mm thick glass cover slides, and grown to ˜70% confluence. The cells were gently washed with cold PBS before adding the peptide. 10 μM of FITC-labeled peptide was added to each well and incubated at 4° C. for 1 hour. After incubation, the cells were washed 3× with PBS, fixed in ice-cold 4% PFA for 10 min, and washed 1× with PBS. Subsequently, the cells were embedded on microscope slides with ProLong Gold reagent containing DAPI (Invitrogen), and the slides where analyzed with a Leica TCS SP5 confocal microscope using 63× oil immersion objective (Leica Microsystems, Leider Lane IL). The FITC-labeled peptides and anti-HER2 antibody were tested in quadruplicate.
We attached a FITC label to each peptide, and imaged binding to Flo1-HER2 and Q-hTERT cells (control) using confocal microscopy. Western blot of these cells show difference in HER2 expression, FIG. 1B. We selected KSPNPRF based on the highest mean fluorescence intensity with binding to Flo1-HER2, FIG. 1C. From our model, this peptide binds to HER2 domain 3. […] The fluorescence emission peak occurs at 708 nm in the NIR spectrum. For both peptides, we achieved >98% purity with HPLC, and measured an experimental mass-to-charge (m/z) ratio on mass spectrometry of 1794.98, which agrees with expected values, FIG. 8A,B.

Assay [5] addresses HER2 over expressed in mouse colonic neoplasia (CPC;Apc mice) (mouse) (UniProt P70424). Description: in vivo NIR fluorescence endoscopy, topical peptide, n=7 adenomas in mice, target-to-background ratio.

Primed or numbered codes have the meaning given here. Ends that are not written are not given here. Cy5.5 = Cy5.5: Cy5.5 fluorophore (fluorescent dye); Cy5.5″ = Cy5.5 fluorophore

T1 sequence (P70424 23-1256): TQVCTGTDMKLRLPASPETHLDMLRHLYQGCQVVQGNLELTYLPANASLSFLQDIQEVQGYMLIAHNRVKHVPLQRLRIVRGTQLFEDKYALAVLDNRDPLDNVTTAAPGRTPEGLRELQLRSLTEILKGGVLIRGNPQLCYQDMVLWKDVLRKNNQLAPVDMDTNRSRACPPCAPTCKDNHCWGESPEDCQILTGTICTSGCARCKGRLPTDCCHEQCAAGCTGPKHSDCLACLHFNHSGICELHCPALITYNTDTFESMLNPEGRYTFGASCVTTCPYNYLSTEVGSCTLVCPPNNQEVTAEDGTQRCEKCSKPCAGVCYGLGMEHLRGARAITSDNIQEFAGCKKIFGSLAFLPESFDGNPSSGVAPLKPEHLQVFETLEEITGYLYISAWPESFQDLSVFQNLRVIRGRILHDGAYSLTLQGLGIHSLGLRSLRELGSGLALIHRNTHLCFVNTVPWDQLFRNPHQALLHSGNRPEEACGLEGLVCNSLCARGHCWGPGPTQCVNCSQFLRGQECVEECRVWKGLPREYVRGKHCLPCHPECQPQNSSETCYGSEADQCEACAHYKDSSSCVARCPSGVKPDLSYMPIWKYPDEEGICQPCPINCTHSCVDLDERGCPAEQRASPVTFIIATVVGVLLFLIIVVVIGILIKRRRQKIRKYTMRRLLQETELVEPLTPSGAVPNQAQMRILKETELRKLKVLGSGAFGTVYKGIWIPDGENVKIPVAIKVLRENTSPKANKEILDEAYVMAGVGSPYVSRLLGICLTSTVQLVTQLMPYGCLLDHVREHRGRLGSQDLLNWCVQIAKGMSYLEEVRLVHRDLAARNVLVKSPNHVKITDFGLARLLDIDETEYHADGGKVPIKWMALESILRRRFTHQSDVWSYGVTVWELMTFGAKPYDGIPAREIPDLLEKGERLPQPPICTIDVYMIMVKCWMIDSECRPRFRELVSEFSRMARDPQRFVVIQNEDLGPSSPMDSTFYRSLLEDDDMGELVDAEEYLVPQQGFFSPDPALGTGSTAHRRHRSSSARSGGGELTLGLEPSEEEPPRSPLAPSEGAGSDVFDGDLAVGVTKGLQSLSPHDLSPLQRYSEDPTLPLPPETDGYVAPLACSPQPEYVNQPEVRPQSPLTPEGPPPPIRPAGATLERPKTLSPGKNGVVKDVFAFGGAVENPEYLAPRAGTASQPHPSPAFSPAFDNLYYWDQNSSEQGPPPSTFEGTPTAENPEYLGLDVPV
HER2 over expressed in mouse colonic neoplasia (CPC;Apc mice) (mouse), sequence (P70424 23-1256): as above

B1: KSP*-Cy5.5 (KSPNPRF peptide labeled with Cy5.5 fluorophore via a GGGSK linker on the C-terminus) (peptide)
peptide: KSPNPRFGGGSK(Cy5.5)-NH2
notes: Synthetic L-amino-acid peptide, Fmoc solid-phase synthesis; also called HER2 peptide reagent; KSP*-Cy5.5 peptide reagent
As to B1, the “mean T/B ratio” value in assay [1] turned out to be 3.64. Also, the “fold mean fluorescence intensity, adenomas against surrounding normal mucosa” value in assay [2] was determined as 5.03 fold. In addition, the Kd in assay [3] was 0.021 µM.
As to KSPNPRF (also: FITC label, site of attachment not given here, also called FITC-labeled peptide) [FITC-labeled KSPNPRF (PEP1)], the binding result in assay [4] is given as “binds”.
As to PPSNFKRGGGSK(Cy5.5″)-NH2 [PPS*-Cy5.5 (scrambled control peptide PPSNFKR linked to Cy5.5 via GGGSK)], the mean T/B ratio in assay [5] was 1.46.
